Data on 1 sequence can be found in patent publication US20110039801A1.

The target in the assay is human NK1 receptor (transiently expressed in HEK293 cells) (human) (UniProt P25103). As to the kind of experiment: cell-based or functional assay.
Chain of UniProt P25103 (P25103 whole entry): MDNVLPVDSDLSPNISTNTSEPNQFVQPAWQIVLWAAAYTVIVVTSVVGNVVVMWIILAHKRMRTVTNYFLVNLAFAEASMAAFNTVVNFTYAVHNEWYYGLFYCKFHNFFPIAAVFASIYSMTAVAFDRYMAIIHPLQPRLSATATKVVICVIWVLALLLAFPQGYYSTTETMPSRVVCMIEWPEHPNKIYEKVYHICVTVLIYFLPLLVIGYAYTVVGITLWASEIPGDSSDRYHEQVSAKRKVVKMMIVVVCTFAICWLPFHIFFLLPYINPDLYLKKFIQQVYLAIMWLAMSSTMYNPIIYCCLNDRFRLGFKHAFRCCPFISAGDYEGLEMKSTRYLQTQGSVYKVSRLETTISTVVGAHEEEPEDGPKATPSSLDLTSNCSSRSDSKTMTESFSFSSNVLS

Turning to “SPANTIDE II (peptidic analog of substance P) (peptide)”, the NK1 receptor antagonistic activity (calcium imaging, inhibition of the substance P (100 µM) induced rise in fluorescence) came to 65%.
